Experimental findings from article doi:10.1101/2023.01.10.523476 (bioRxiv, 2023) are described below.

Where two headings read alike, the source gives them in different places.

Series [1] deals with the molecule itself. The experiment in a line: cryo-EM structure.
Series [2] concerns the molecule itself. The experiment in a line: cryo-EM structure. This is another data set of the same source.

B1: GspDα secretin (E. coli K12 strain) (natural protein)
chain: ENEQYGANFNNADIRQFVEIVGQHLGKTILIDPSVQGTISVRSNDTFSQQEYYQFFLSILDLYGYSVITLDNGFLKVVRSANVKTSPGMIADSSRPGVGDELVTRIVPLENVPARDLAPLLRQMMDAGSVGNVVHYEPSNVLILTGRASTINKLIEVIKRVDVIGTEKQQIIHLEYASAEDLAEILNQLISESHGKSQMPALLSAKIVADKRTNSLIISGPEKARQRITSLLKSLDVEESEEGNTRVYYLKYAKATNLVEVLTGVSEKLKDEKGNARKPSSSGAMDNVAITADEQTNSLVITADQSVQEKLATVIARLDIRRAQVLVEAIIVEVQDGNGLNLGVQWANKNVGAQQFTNTGLPIFNAAQGVADYKKNGGITSANPAWDMFSAYNGMAAGFFNGDWGVLLTALASNNKNDILATPSIVTLDNKLASFNVGQDVPVLSGSQTTSGDNVFNTVERKTVGTKLKVTPQVNEGDAVLLEIEQEVSSVDSSSNSTLGPTFNTRTIQNAVLVKTGETVVLGGLLDDFSKEQVSKVPLLGDIPLVGQLFRYTSTERAKRNLMVFIRPTIIRDDDVYRSLSKEKYTRYRQEQQQRIDGKSKALVGSEDLPVLDENTFNSHAPAPSSR
Usually stoichiometry N stands for a count of units in the complex or per binding partner. Regarding B1, the “stoichiometry N” value in “cryo-EM structure [1]” came out at 15.

B2: GspDβ secretin (ETEC H10407 strain) with hexahistidine tag (natural protein)
chain: EEATFTANFKDTDLKSFIETVGANLNKTIIMGPGVQGKVSIRTMTPLNERQYYQLFLNLLEAQGYAVVPMENDVLKVVKSSAAKVEPLPLVGEGSDNYAGDEMVTKVVPVRNVSVRELAPILRQMIDSAGSGNVVNYDPSNVIMLTGRASVVERLTEVIQRVDHAGNRTEEVIPLDNASASEIARVLESLTKNSGENQPATLKSQIVADERTNSVIVSGDPATRDKMRRLIRRLDSEMERSGNSQVFYLKYSKAEDLVDVLKQVSGTLTAAKEEAEGTVGSGREIVSIAASKHSNALIVTAPQDIMQSLQSVIEQLDIRRAQVHVEALIVEVAEGSNINFGVQWASKDAGLMQFANGTQIPIGTLGAAISQAKPQKGSTVISENGATTINPDTNGDLSTLAQLLSGFSGTAVGVVKGDWMALVQAVKNDSSSNVLSTPSITTLDNQEAFFMVGQDVPVLTGSTVGSNNSNPFNTVERKKVGIMLKVTPQINEGNAVQMVIEQEVSKVEGQTSLDVVFGERKLKTTVLANDGELIVLGGLMDDQAGESVAKVPLLGDIPLIGNLFKSTADKKEKRNLMVFIRPTILRDGMAADGVSQRKYNYMRAEQIYRDEQGLSLMPHTAQPVLPAQNQALPPEVRAFLNAGRTR
For B2, the “stoichiometry N” value in “cryo-EM structure [2]” was determined as 15.
